# Results taken from patent US20140170149A1 (Genmab, published 2014).
# Read-outs that look alike come from different tables or passages of the source.
# Key:
# [1] = molecular target: T1, human CD3 protein complex (human, UniProt P07766 23-207; P09693 23-182; P04234 22-171; P20963 22-164); assay: flow cytometry on Jurkat cells (CD3-expressing T cell line), MFI (PE) (Example 21)
# T1 construct: whole, on cells; also called CD3 on Jurkat cells
# [2] = molecular target: T1, human CD3 protein complex; assay: as above; remark: listed apart in the source
# [3] = molecular target: T1, human CD3 protein complex; assay: as above; remark: listed apart in the source
# [4] = molecular target: T2, human epidermal growth factor receptor 2 (HER2) (human, UniProt P04626 23-1255); assay: flow cytometry on CHO-S cells transiently transfected with hu-HER2, PE-goat anti-human IgG, MFI (Example 24)
# T2 construct: whole, on cells; One entry for endogenous HER2 on tumor cell lines and for the fully human construct hu-HER2 on CHO-S cells; also called ErbB-2; hu-HER2
# [5] = molecular target: T2, human epidermal growth factor receptor …; assay: flow cytometry on A431 cells (low HER2), PE-goat anti-human IgG, MFI; EC50 by non-linear regression (Example 12)
# Experimental: (§1) Binding of HER2 antibodies was detected using a Phycoerythrin (PE)-conjugated goat-anti-human IgG antibody (Jackson). […] EC₅₀ values were determined by means of non-linear regression (sigmoidal dose-response with variable slope) using GraphPad Prism V4.03 software (GraphPad Software, San Diego, Calif., USA).
# [6] = molecular target: T2, human epidermal growth factor receptor …; assay: flow cytometry on AU565 cells (high HER2), PE-goat anti-human IgG, MFI; EC50 by non-linear regression (Example 12)
# Experimental: as §1
# [7] = molecular target: T2, human epidermal growth factor receptor …; assay: cell-based or functional assay
# T1 sequence (P07766 23-207, form in doubt, chain 1 of 4): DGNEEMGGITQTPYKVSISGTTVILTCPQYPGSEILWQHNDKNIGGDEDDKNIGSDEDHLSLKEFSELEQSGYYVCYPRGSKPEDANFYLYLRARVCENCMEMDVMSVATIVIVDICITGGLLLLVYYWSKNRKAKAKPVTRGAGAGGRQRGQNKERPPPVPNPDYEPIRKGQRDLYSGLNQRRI
# T1 sequence (P09693 23-182, form in doubt, chain 2 of 4): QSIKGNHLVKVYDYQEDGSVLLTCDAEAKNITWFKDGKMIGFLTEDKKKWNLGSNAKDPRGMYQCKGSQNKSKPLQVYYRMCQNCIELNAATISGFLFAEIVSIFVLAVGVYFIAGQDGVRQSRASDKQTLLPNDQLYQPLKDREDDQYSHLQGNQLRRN
# T1 sequence (P04234 22-171, form in doubt, chain 3 of 4): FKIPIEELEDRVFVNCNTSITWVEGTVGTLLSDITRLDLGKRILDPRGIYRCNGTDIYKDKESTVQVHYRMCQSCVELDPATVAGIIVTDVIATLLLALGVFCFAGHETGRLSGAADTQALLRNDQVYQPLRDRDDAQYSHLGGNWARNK
# T1 sequence (P20963 22-164, form in doubt, chain 4 of 4): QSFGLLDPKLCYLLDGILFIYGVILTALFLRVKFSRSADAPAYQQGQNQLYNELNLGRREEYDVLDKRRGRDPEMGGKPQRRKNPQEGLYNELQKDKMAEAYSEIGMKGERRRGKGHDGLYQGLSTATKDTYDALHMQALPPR
binder,measurement,setting,value
"IgG1-huOKT3-F405L (antibody, V domains shown, Expressed as IgG1,κ with F405L; also called huOKT3-C114S-gLC; IgG1-OKT3) VH: QVQLVQSGGGVVQPGRSLRLSCKASGYTFTRYTMHWVRQAPGKGLEWIGYINPSRGYTNYNQKVKDRFTISRDNSKNTAFLQMDSLRPEDTGVYFCARYYDDHYSLDYWGQGTPVTVSS VL: DIQMTQSPSSLSASVGDRVTITCSASSSVSYMNWYQQTPGKAPKRWIYDTSKLASGVPSRFSGSGSGTDYTFTISSLQPEDIATYYCQQWSSNPFTFGQGTKLQIT",EC50 (read off the curve),[1],~0.02 µg/mL
"IgG1-HUM291-F405L (antibody, V domains shown, Expressed as IgG1,κ with F405L; also called visilizumab) VH: QVQLVQSGAEVKKPGASVKVSCKASGYTFISYTMHWVRQAPGQGLEWMGYINPRSGYTHYNQKLKDKATLTADKSASTAYMELSSLRSEDTAVYYCARSAYYDYDGFAYWGQGTLVTVSS VL: DIQMTQSPSSLSASVGDRVTITCSASSSVSYMNWYQQKPGKAPKRLIYDTSKLASGVPSRFSGSGSGTDFTLTISSLQPEDFATYYCQQWSSNPPTFGGGTKVEIK",EC50 (read off the curve),[2],~0.02 µg/mL
"huOKT3-F405L x b12-K409R (bispecific antibody, also called huOKT3 x b12; CD3xb12 control) heavy chain, CD3 arm (huOKT3-C114S-gLC, IgG1-F405L): not shown light chain, CD3 arm: DIQMTQSPSSLSASVGDRVTITCSASSSVSYMNWYQQTPGKAPKRWIYDTSKLASGVPSRFSGSGSGTDYTFTISSLQPEDIATYYCQQWSSNPFTFGQGTKLQIT heavy chain, b12 arm (IgG1-K409R): not shown light chain, b12 arm: EIVLTQSPGTLSLSPGERATFSCRSSHSIRSRRVAWYQHKPGQAPRLVIHGVSNRASGISDRFSGSGSGTDFTLTITRVEPEDFALYYCQVYGASSYTFGQGTKLERK",EC50 (read off the curve),[1],~3 µg/mL
"huCLB-T3/4-F405L x b12-K409R (bispecific antibody, also called huCLB-T3/4 x b12; CD3xb12 control) heavy chain, CD3 arm (huCLB-T3/4, IgG1-F405L): not shown light chain, CD3 arm: EIVLTQSPATLSLSPGERATLSCSASSSVTYVHWYQQKPGQAPRLLIYDTSKLASGIPARFSGSGSGTDFTLTISSLEPEDFAVYYCFQGSGYPLTFGSGTKLEMR heavy chain, b12 arm (IgG1-K409R): not shown light chain, b12 arm: EIVLTQSPGTLSLSPGERATFSCRSSHSIRSRRVAWYQHKPGQAPRLVIHGVSNRASGISDRFSGSGSGTDFTLTITRVEPEDFALYYCQVYGASSYTFGQGTKLERK",EC50 (read off the curve),[3],~0.2 µg/mL
"HER2 HuMab 153 (antibody, V domains shown, also called PC1014-153; TH1014-153) VH: QVQLVESGGGVVQPGRSLRLSCAASGFTFSDYVIHWVRQAPGKGLEWVTVISYDGSNKYYADSVKGRFTISRDNSKNTLYLQMNSLSAEDTAMYYCARGGITGTTGVFDYWGQGTLVTVSS VL: DIQMTQSPSSLSASVGDRVTITCRASQGISSWLAWYQQKPEKAPKSLIYDASSLQSGVPSRFSGSGYGTDFSLTISSLQPEDFAIYYCQQYKSYPITFGQGTRLEIK",EC50 (read off the curve),[4],~0.04 µg/mL
same,EC50,[5],0.244 µg/mL
same,EC50,[6],0.626 µg/mL
same,"EC50, fab-CypHer5E internalization assay, AU565 cells",[7],~0.0149 µg/mL
same,"Maximal MFI, fab-CypHer5E internalization assay, AU565 cells",[7],87500 MFI
"IgG1-huOKT3-F405L × IgG1-HER2-153-K409R (bispecific antibody, Made by 2-MEA-induced Fab-arm exchange; IgG1,κ; also called huOKT3×153) heavy 1: not shown VL 1: DIQMTQSPSSLSASVGDRVTITCRASQGISSWLAWYQQKPEKAPKSLIYDASSLQSGVPSRFSGSGYGTDFSLTISSLQPEDFAIYYCQQYKSYPITFGQGTRLEIK heavy 2: not shown VL 2: DIQMTQSPSSLSASVGDRVTITCSASSSVSYMNWYQQTPGKAPKRWIYDTSKLASGVPSRFSGSGSGTDYTFTISSLQPEDIATYYCQQWSSNPFTFGQGTKLQIT",EC50 (read off the curve),[1],~2 µg/mL
"IgG1-HUM291-F405L × IgG1-HER2-153-K409R (bispecific antibody, Made by 2-MEA-induced Fab-arm exchange; IgG1,κ; also called HUM291×153) heavy 1: not shown VL 1: DIQMTQSPSSLSASVGDRVTITCRASQGISSWLAWYQQKPEKAPKSLIYDASSLQSGVPSRFSGSGYGTDFSLTISSLQPEDFAIYYCQQYKSYPITFGQGTRLEIK heavy 2: not shown VL 2: DIQMTQSPSSLSASVGDRVTITCSASSSVSYMNWYQQKPGKAPKRLIYDTSKLASGVPSRFSGSGSGTDFTLTISSLQPEDFATYYCQQWSSNPPTFGGGTKVEIK",EC50 (read off the curve),[2],~2 µg/mL
